According to patent publication US5603943A, “Nasally administrable compositions” (Dott Research Laboratory, priority 1994, dated 1997):
Values joined by “and” are separate entries in the source; they are usually repeats but may differ in a detail not shown here. Equal entries are not always repeated. Ends that are not written are not given here.

Tests used:
[1] = relative, among calcitonins; cited from earlier work
[2] = Nasal absorption, clinical effect and irritation (general statement); format: in vivo; details: powder in specific carrier, nasal route
[3] = tested on: blood sugar; assay: Average fall of the blood sugar after nasal or subcutaneous insulin (Test Example 1); format: in vivo, male New Zealand rabbits
Experimental: A nasally administrable composition in powdery form was prepared by formulating insulin as a physiologically active peptide at the rate of 2.4 mg/rabbit (5 insulin unit (IU)/rabbit) with hydroxyapatite as a carrier having a mean particle size ranging from 40 to 45 μm.
The resulting composition was nasally administered once to six male New Zealand rabbits.
The average fall of the blood sugar was measured and represented in percentage (%) at 0, 15, 30, 60, 120 and 180 minutes after administration.
For comparison, 2 (IU)/rabbit of insulin was administered subcutaneously to six male New Zealand rabbits and the average fall of the blood sugar was measured and represented in percentage (%) at 0, 60, 120, 240 and 360 minutes after administration.

[4] = Somatropin blood concentration, nasal powder with calcium lactate or calcium carbonate (Test Example 11); format: in vivo, healthy male adults (human)
Experimental: The blood (2.5 ml) was collected from each of the tested adults prior to administration and then at 5, 10, 15, 20, 30, 45, 60, 90, 120, 150 and 180 minutes after administration.

[5] = Somatropin blood concentration, nasal powder with hydroxyapatite or calcium carbonate (Test Example 10); format: in vivo, healthy male adults (human); details: for Concentration of somatropin in the blood: nasal 6.825 somatropin unit/25 mg
Experimental: The blood (2.5 ml) was collected from each of the tested adults prior to administration and then at 5, 10, 15, 20, 30, 45, 60, 90, 120 and 150 minutes after administration.

In the case of “eel calcitonin: naturally occurring calcitonin extracted from the origin and commercially available (CSNLSTCVLGKLSQELHKLQTYPRTDVGAGTP; ends and bridges not checked; cysteine pairing not given here; UniProt P01262 1-32, looked up)”, the stability [1] is listed as “higher in stability than human calcitonin”.
In the case of “insulin: peptide hormone formulated with hydroxyapatite for nasal administration; also given subcutaneously as comparison”, the “absorption into the body” value [2] is reported as “well absorbed into the body”, the clinical effects [2] is reported as “high clinical effects” and the “Blood sugar, percent of initial value” ([3]; S.C. comparison, 2 IU/rabbit, 0 min) is reported as 100%. The “Blood sugar, percent of initial value” ([3]; S.C. comparison, 2 IU/rabbit, 60 min) was 57%, the “Blood sugar, percent of initial value” ([3]; S.C. comparison, 2 IU/rabbit, 120 min) was 56% and the “Blood sugar, percent of initial value” ([3]; S.C. comparison, 2 IU/rabbit, 240 min) was 84%. The “Blood sugar, percent of initial value” ([3]; S.C. comparison, 2 IU/rabbit, 360 min) was 94%, the “absorption through nasal route” value ([3]; hydroxyapatite, rabbits) was “high extent of absorption” and the “Blood sugar, percent of initial value” ([3]; nasal, 5 IU/rabbit, hydroxyapatite, 0 min) was 100%. The “Blood sugar, percent of initial value” ([3]; nasal, 5 IU/rabbit, hydroxyapatite, 15 min) was 105%, the “Blood sugar, percent of initial value” ([3]; nasal, 5 IU/rabbit, hydroxyapatite, 30 min) was 66% and the “Blood sugar, percent of initial value” ([3]; nasal, 5 IU/rabbit, hydroxyapatite, 60 min) was 67%. The “Blood sugar, percent of initial value” ([3]; nasal, 5 IU/rabbit, hydroxyapatite, 120 min) was 84% and the “Blood sugar, percent of initial value” ([3]; nasal, 5 IU/rabbit, hydroxyapatite, 180 min) was 96%.
For “somatropin: somatropin (growth hormone; recombinant type--NOVO), 150 mg per composition (1,000 mg) with carrier”, the “Concentration of somatropin in the blood” value ([4]; 0 min (predose), nasal 6.825 somatropin unit/25 mg, calcium carbonate, individual cases No. 31-32 in order) was 0.15 ng/mL and 0.69 ng/mL, the “Concentration of somatropin in the blood” value ([4]; 0 min (predose), nasal 6,825 (so in the source) somatropin unit/25 mg, calcium lactate, individual cases No. 29-30 in order) was 1.15 ng/mL and 0.16 ng/mL and the “Concentration of somatropin in the blood” value ([4]; 5 min, nasal 6.825 somatropin unit/25 mg, calcium carbonate, individual cases No. 31-32 in order) was 0.46 ng/mL and 6.15 ng/mL. For the same substance, the “Concentration of somatropin in the blood” value ([4]; 5 min, nasal, 25 mg, calcium lactate, individual cases No. 29-30 in order) was 2.56 ng/mL and 0.30 ng/mL, the “Concentration of somatropin in the blood” value ([4]; 10 min, nasal 6.825 somatropin unit/25 mg, calcium carbonate, individual cases No. 31-32 in order) was 0.81 ng/mL and 2.81 ng/mL and the “Concentration of somatropin in the blood” value ([4]; 10 min, nasal, 25 mg, calcium lactate, individual cases No. 29-30 in order) was 4.29 ng/mL and 0.37 ng/mL. The “Concentration of somatropin in the blood” value ([4]; 15 min, nasal 6.825 somatropin unit/25 mg, calcium carbonate, individual cases No. 31-32 in order) was 1.13 ng/mL and 2.49 ng/mL, the “Concentration of somatropin in the blood” value ([4]; 15 min, nasal, 25 mg, calcium lactate, individual cases No. 29-30 in order) was 5.11 ng/mL and 0.65 ng/mL and the “Concentration of somatropin in the blood” value ([4]; 20 min, nasal 6.825 somatropin unit/25 mg, calcium carbonate, individual cases No. 31-32 in order) was 1.30 ng/mL and 2.20 ng/mL. For the same substance, the “Concentration of somatropin in the blood” value ([4]; 20 min, nasal, 25 mg, calcium lactate, individual cases No. 29-30 in order) was 5.87 ng/mL and 0.72 ng/mL, the “Concentration of somatropin in the blood” value ([4]; 30 min, nasal 6.825 somatropin unit/25 mg, calcium carbonate, individual cases No. 31-32 in order) was 1.64 ng/mL and 2.12 ng/mL and the “Concentration of somatropin in the blood” value ([4]; 30 min, nasal, 25 mg, calcium lactate, individual cases No. 29-30 in order) was 7.70 ng/mL and 0.79 ng/mL. For the same substance, the “Concentration of somatropin in the blood” value ([4]; 45 min, nasal 6.825 somatropin unit/25 mg, calcium carbonate, individual cases No. 31-32 in order) was 1.79 ng/mL and 1.67 ng/mL, the “Concentration of somatropin in the blood” value ([4]; 45 min, nasal, 25 mg, calcium lactate, individual cases No. 29-30 in order) was 5.99 ng/mL and 0.71 ng/mL and the “Concentration of somatropin in the blood” value ([4]; 60 min, nasal 6.825 somatropin unit/25 mg, calcium carbonate, individual cases No. 31-32 in order) was 1.47 ng/mL and 1.36 ng/mL. The “Concentration of somatropin in the blood” value ([4]; 60 min, nasal, 25 mg, calcium lactate, individual cases No. 29-30 in order) was 6.16 ng/mL and 0.62 ng/mL, the “Concentration of somatropin in the blood” value ([4]; 90 min, nasal 6.825 somatropin unit/25 mg, calcium carbonate, individual cases No. 31-32 in order) was 1.18 ng/mL and 1.02 ng/mL and the “Concentration of somatropin in the blood” value ([4]; 90 min, nasal, 25 mg, calcium lactate, individual cases No. 29-30 in order) was 3.39 ng/mL and 0.58 ng/mL. The “Concentration of somatropin in the blood” value ([4]; 120 min, nasal 6.825 somatropin unit/25 mg, calcium carbonate, individual cases No. 31-32 in order) was 0.79 ng/mL and 0.48 ng/mL, the “Concentration of somatropin in the blood” value ([4]; 120 min, nasal, 25 mg, calcium lactate, individual cases No. 29-30 in order) was 1.70 ng/mL and 0.32 ng/mL and the “Concentration of somatropin in the blood” value ([4]; 150 min, nasal 6.825 somatropin unit/25 mg, calcium carbonate, individual cases No. 31-32 in order) was 0.59 ng/mL and 0.37 ng/mL. The “Concentration of somatropin in the blood” value ([4]; 150 min, nasal, 25 mg, calcium lactate, individual cases No. 29-30 in order) was 0.24 ng/mL, the “Concentration of somatropin in the blood” value ([4]; 180 min, nasal 6.825 somatropin unit/25 mg, calcium carbonate, individual cases No. 31-32 in order) was 1.67 ng/mL and 0.48 ng/mL and the “Concentration of somatropin in the blood” value ([4]; 180 min, nasal, 25 mg, calcium lactate, individual cases No. 29-30 in order) was 0.45 ng/mL and 1.02 ng/mL. For the same substance, the “absorption through nasal route” value ([4]; calcium lactate and calcium carbonate) was “high extent of absorption”, the “Concentration of somatropin in the blood” value ([5]; 0 min (predose), calcium carbonate, individual cases No. 27-28 in order) was 0.28 ng/mL and 0.24 ng/mL and the “Concentration of somatropin in the blood” value ([5]; 0 min (predose), hydroxyapatite, individual cases No. 25-26 in order) was 0.49 ng/mL and 0.76 ng/mL. For the same substance, the “Concentration of somatropin in the blood” value ([5]; 5 min, calcium carbonate, individual cases No. 27-28 in order) was 0.96 ng/mL and 0.55 ng/mL, the “Concentration of somatropin in the blood” value ([5]; 5 min, hydroxyapatite, individual cases No. 25-26 in order) was 2.44 ng/mL and 3.18 ng/mL and the “Concentration of somatropin in the blood” value ([5]; 10 min, calcium carbonate, individual cases No. 27-28 in order) was 2.55 ng/mL and 1.08 ng/mL. The “Concentration of somatropin in the blood” value ([5]; 10 min, hydroxyapatite, individual cases No. 25-26 in order) was 3.59 ng/mL and 2.27 ng/mL, the “Concentration of somatropin in the blood” value ([5]; 15 min, calcium carbonate, individual cases No. 27-28 in order) was 2.84 ng/mL and 1.41 ng/mL and the “Concentration of somatropin in the blood” value ([5]; 15 min, hydroxyapatite, individual cases No. 25-26 in order) was 4.66 ng/mL and 2.00 ng/mL. The “Concentration of somatropin in the blood” value ([5]; 20 min, calcium carbonate, individual cases No. 27-28 in order) was 3.02 ng/mL and 1.78 ng/mL, the “Concentration of somatropin in the blood” value ([5]; 20 min, hydroxyapatite, individual cases No. 25-26 in order) was 6.25 ng/mL and 1.86 ng/mL and the “Concentration of somatropin in the blood” value ([5]; 30 min, calcium carbonate, individual cases No. 27-28 in order) was 4.11 ng/mL and 1.91 ng/mL. The “Concentration of somatropin in the blood” value ([5]; 30 min, hydroxyapatite, individual cases No. 25-26 in order) was 5.21 ng/mL and 1.67 ng/mL, the “Concentration of somatropin in the blood” value ([5]; 45 min, calcium carbonate, individual cases No. 27-28 in order) was 8.93 ng/mL and 1.99 ng/mL and the “Concentration of somatropin in the blood” value ([5]; 45 min, hydroxyapatite, individual cases No. 25-26 in order) was 4.16 ng/mL and 1.80 ng/mL. For the same substance, the “Concentration of somatropin in the blood” value ([5]; 60 min, calcium carbonate, individual cases No. 27-28 in order) was 13.10 ng/mL and 2.11 ng/mL, the “Concentration of somatropin in the blood” value ([5]; 60 min, hydroxyapatite, individual cases No. 25-26 in order) was 2.93 ng/mL and 1.61 ng/mL and the “Concentration of somatropin in the blood” value ([5]; 90 min, calcium carbonate, individual cases No. 27-28 in order) was 14.60 ng/mL and 1.27 ng/mL. The “Concentration of somatropin in the blood” value ([5]; 90 min, hydroxyapatite, individual cases No. 25-26 in order) was 1.45 ng/mL and 1.41 ng/mL, the “Concentration of somatropin in the blood” value ([5]; 120 min, calcium carbonate, individual cases No. 27-28 in order) was 5.65 ng/mL and 0.92 ng/mL and the “Concentration of somatropin in the blood” value ([5]; 120 min, hydroxyapatite, individual cases No. 25-26 in order) was 0.76 ng/mL and 1.16 ng/mL. For the same substance, the “Concentration of somatropin in the blood” value ([5]; 150 min, calcium carbonate, individual cases No. 27-28 in order) was 2.97 ng/mL and 0.80 ng/mL, the “Concentration of somatropin in the blood” value ([5]; 150 min, hydroxyapatite, individual cases No. 25-26 in order) was 0.91 ng/mL and the “absorption through nasal route” value ([5]; hydroxyapatite and calcium carbonate) was “high extent of absorption”. For the same substance, the “absorption into the body” value [2] was “well absorbed into the body” and the clinical effects [2] was “high clinical effects”.
In the case of “human calcitonin: naturally occurring calcitonin extracted from the origin and commercially available”, the stability [1] is given as “higher than salmon calcitonin”.
